Reference: patent US20180208918A1

Tests used:
[1] = test system: pPROT8 derived LacZ-proELA-1 fusion protein [β-galactosidase: P00722]
[2] = test system: recombinant MBP-proELA-1 fusion protein (from pPROT5)
[3] = target: recombinant trypsin (TrypZean) (UniProt P00760); test: cell-based or functional assay
Chain of UniProt P00760 (P00760 24-246): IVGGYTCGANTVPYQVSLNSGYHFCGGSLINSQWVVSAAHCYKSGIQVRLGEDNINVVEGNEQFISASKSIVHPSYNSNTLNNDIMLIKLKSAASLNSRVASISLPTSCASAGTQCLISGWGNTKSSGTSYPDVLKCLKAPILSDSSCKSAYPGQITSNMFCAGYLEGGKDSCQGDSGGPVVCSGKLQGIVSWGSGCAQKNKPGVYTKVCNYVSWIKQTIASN

trypsin
conversion of the fusion protein to enzymatically active human ELA-1 with trypsin [1]: it could not be converted to enzymatically active human ELA-1 with trypsin | digestion of the fusion protein with trypsin (SDS-PAGE; elastase activity by SLAP assay) [2]: The soluble recombinant MBP-proELA-1 protein could be digested with trypsin to yield both MBP and mature human ELA-1

B1: soybean trypsin inhibitor (SBTI) (protein, UniProt P01070 25-205, looked up)
chain: DFVLDNEGNPLENGGTYYILSDITAFGGIRAAPTGNERCPLTVVQSRNELDKGIGTIISSPYRIRFIAEGHPLSLKFDSFAVIMLCVGIPTEWSVVEDLPEGPAVKIGENKDAMDGWFRLERVSDDEFNNYKLVFCPQQAEDDKCGDIGISIDHDDGTRRLVVSKNKPLVVQFQKLDKESL
Mean trypsin activity (BENZ assay), TrypZean concentration equivalent; PRT-201 from clone 55M3 Vial #1 plus TrypZean spike (to 100 ng/mL) and SBTI (to 10 ug/mL); spike without SBTI 118.7 [3]: < 1.56 ng/mL | Mean trypsin activity (BENZ assay), TrypZean concentration equivalent; PRT-201 from clone 55M3 Vial #2 plus TrypZean spike (to 100 ng/mL) and SBTI (to 10 ug/mL); spike without SBTI 122.4 [3]: < 1.56 ng/mL | Mean trypsin activity (BENZ assay), TrypZean concentration equivalent; PRT-201 from clone 55M3 Vial #3 plus TrypZean spike (to 100 ng/mL) and SBTI (to 10 ug/mL); spike without SBTI 122.8 [3]: < 1.56 ng/mL | Mean trypsin activity (BENZ assay), TrypZean concentration equivalent; PRT-201 from trypsin activated clone plus SBTI (to 10 ug/mL); intrinsic activity without SBTI 8.7 [3]: < 1.56 ng/mL | Mean trypsin activity (BENZ assay), TrypZean concentration equivalent; PRT-201 from trypsin activated clone plus TrypZean spike (to 100 ng/mL) and SBTI (to 10 ug/mL); spike without SBTI 130.0 [3]: < 1.56 ng/mL | Mean trypsin activity (BENZ assay), TrypZean concentration equivalent; TrypZean standard 1.56 ng/mL plus SBTI (to 10 ug/mL); without SBTI 2.7 [3]: < 1.56 ng/mL | Mean trypsin activity (BENZ assay), TrypZean concentration equivalent; TrypZean standard 3.13 ng/mL plus SBTI (to 10 ug/mL); without SBTI 3.7 [3]: < 1.56 ng/mL | Mean trypsin activity (BENZ assay), TrypZean concentration equivalent; TrypZean standard 6.25 ng/mL plus SBTI (to 10 ug/mL); without SBTI 6.5 [3]: < 1.56 ng/mL | Mean trypsin activity (BENZ assay), TrypZean concentration equivalent; TrypZean standard 12.5 ng/mL plus SBTI (to 10 ug/mL); without SBTI 11.2 [3]: < 1.56 ng/mL | Mean trypsin activity (BENZ assay), TrypZean concentration equivalent; TrypZean standard 25 ng/mL plus SBTI (to 10 ug/mL); without SBTI 23.5 [3]: < 1.56 ng/mL | Mean trypsin activity (BENZ assay), TrypZean concentration equivalent; TrypZean standard 50 ng/mL plus SBTI (to 10 ug/mL); without SBTI 49.4 [3]: < 1.56 ng/mL | Mean trypsin activity (BENZ assay), TrypZean concentration equivalent; TrypZean standard 100 ng/mL plus SBTI (to 10 ug/mL); without SBTI 102.4 [3]: < 1.56 ng/mL
